Measured values published in US20110300138A1 (published 2011).
One block for each molecule: values may come before it.

How the values were obtained:
[1] = biological target: TSH receptor (full length human TSHR) coated on tubes (human) (UniProt P16473); test: 125I-TSH binding inhibition read against NIBSC 90/672; 30 ng/mL, in assay buffer
[2] = biological target: TSH receptor (TSHR), full length human, coated on tubes (human) (UniProt P16473); test: inhibition of 125I-TSH binding to TSHR coated tubes; 0.003 µg/mL, diluted in assay buffer
[3] = biological target: TSHR (full length) coated on tubes (human) (UniProt P16473); test: inhibition of 125I-K1-18 Fab (competitor) binding to TSHR coated tubes; negative control 0.1 µg/mL in HBD serum
[4] = biological target: TSH receptor (TSHR) coated on tubes (human) (UniProt P16473); test: inhibition of 125I-K1-70 IgG binding to TSHR coated tubes; negative control 10 µg/mL in HBD serum pool
[5] = biological target: TSHR (full length) coated on tubes (human) (UniProt P16473); test: inhibition of 125I-K1-18 Fab (competitor) binding to TSHR coated tubes; negative control 1 µg/mL in HBD serum
[6] = biological target: human TSH receptor (full length) coated on ELISA plate wells (human) (UniProt P16473); test: TSH-biotin binding inhibition ELISA, TSHR coated wells; 10 µg/mL in assay buffer; negative control MAb
[7] = biological target: TSH receptor (full length human TSHR) (human) (UniProt P16473); test: competition ELISA: inhibition of M22 Fab-peroxidase (competitor) binding to TSHR coated wells; negative control at 100 µg/mL diluted in assay buffer
[8] = biological target: TSHR with Trp258 mutated to Ala, expressed in CHO cells (human) (UniProt P16473); test: cell-based or functional assay
[9] = biological target: wild type TSHR (human TSH receptor) expressed in CHO cells (human) (UniProt P16473); test: cell-based or functional assay
[10] = biological target: thyroid stimulating hormone receptor (TSHR), full length human TSHR (human) (UniProt P16473); test: TSH-biotin competition ELISA, TSHR coated wells; negative control, 1 µg/mL in HBD serum
[11] = biological target: human TSH receptor (full length) coated on ELISA plate wells (human) (UniProt P16473); test: TSH-biotin binding inhibition ELISA, TSHR coated wells; 1 µg/mL in HBD serum pool; negative control MAb
[12] = biological target: TSHR (full length) coated on tubes (human) (UniProt P16473); test: inhibition of 125I-K1-18 Fab (competitor) binding to TSHR coated tubes; test sample 10 µg/mL in assay buffer
[13] = biological target: TSH receptor (full length human TSHR) (human) (UniProt P16473); test: competition ELISA: inhibition of M22 Fab-peroxidase (competitor) binding to TSHR coated wells; test sample at 0.01 µg/mL diluted in HBD serum pool
[14] = biological target: TSHR (thyroid stimulating hormone receptor), full length human (human) (UniProt P16473); test: competitor ^125I-K1-70 IgG, TSHR coated tubes; 10 µg/mL in HBD
[15] = biological target: TSH receptor (TSHR), full length human, coated on tubes (human) (UniProt P16473); test: inhibition of 125I-K1-18 IgG binding to TSHR coated tubes; competitor 125I-K1-18 IgG; sample at 10 µg/mL in assay buffer
[16] = biological target: TSH receptor (TSHR), full length human, coated on tubes (human) (UniProt P16473); test: inhibition of 125I-K1-18 IgG binding to TSHR coated tubes; competitor 125I-K1-18 IgG; sample at 0.1 µg/mL in assay buffer
[17] = biological target: TSH receptor (TSHR), full length human, coated on tubes (human) (UniProt P16473); test: inhibition of 125I-K1-18 IgG binding to TSHR coated tubes; competitor 125I-K1-18 IgG; sample at 100 µg/mL in HBD serum
[18] = biological target: TSH receptor (TSHR) coated on tubes (human) (UniProt P16473); test: inhibition of 125I-K1-70 IgG binding to TSHR coated tubes; sample 0.01 µg/mL in assay buffer
[19] = biological target: human TSH receptor (full length) coated on ELISA plate wells (human) (UniProt P16473); test: TSH-biotin binding inhibition ELISA, TSHR coated wells; 1 µg/mL in assay buffer
[20] = biological target: human TSH receptor (full length) coated on ELISA plate wells (human) (UniProt P16473); test: TSH-biotin binding inhibition ELISA, TSHR coated wells; 1 µg/mL in HBD serum pool
[21] = biological target: thyroid stimulating hormone receptor (TSHR), full length, coated on tubes (human) (UniProt P16473); test: inhibition of 125I-TSH binding, TSHR coated tubes; antibody 0.01 µg/mL in HBD serum pool
[22] = biological target: thyroid stimulating hormone receptor (full length human TSHR) (human) (UniProt P16473); test: ELISA, inhibition of TSH-biotin binding to TSHR coated wells; 0.01 µg/mL, diluted in HBD serum pool
[23] = biological target: TSH receptor (TSHR), full length human, coated on tubes (human) (UniProt P16473); test: inhibition of 125I-K1-18 IgG (competitor) binding to TSHR coated tubes; test sample at 0.1 µg/mL in assay buffer
[24] = biological target: thyroid stimulating hormone receptor (TSHR), full length, coated on tubes (human) (UniProt P16473); test: inhibition of 125I-TSH binding, TSHR coated tubes; antibody 1 µg/mL in HBD serum pool
[25] = biological target: TSH receptor (TSHR) coated on tubes (human) (UniProt P16473); test: inhibition of 125I-K1-70 IgG binding to TSHR coated tubes; sample 100 µg/mL in assay buffer
[26] = biological target: thyroid stimulating hormone receptor (full length human TSHR) (human) (UniProt P16473); test: ELISA: inhibition of M22 Fab-peroxidase (competitor) binding to TSHR coated wells; 0.1 µg/mL, diluted in assay buffer
[27] = biological target: TSH receptor (TSHR), full length human, coated on tubes (human) (UniProt P16473); test: inhibition of 125I-K1-18 IgG (competitor) binding to TSHR coated tubes; test sample at 0.01 µg/mL in assay buffer

Molecule: 5B3 IgG (antibody)
- Inhibition of binding (%) [3]: -8.3%
- Inhibition of binding (%) [4]: -0.7%
- Inhibition of binding (%) [5]: -3.1%
- % inhibition of TSH-biotin binding [6]: 0.9%
- Inhibition of binding (%) [7]: 8.1%
- % inhibition of TSH stimulation; 5B3 10 µg/mL [8]: 15%
- % inhibition of TSH stimulation; 5B3 100 µg/mL [8]: 4%
- Cyclic AMP produced; 5B3 10 µg/mL + TSH 3 ng/mL [8]: 50.7 pmol/mL
- Cyclic AMP produced; 5B3 100 µg/mL + TSH 3 ng/mL [8]: 57.6 pmol/mL
- Mutated/wild type (%) of cyclic AMP produced; 5B3 10 µg/mL + TSH 3 ng/mL [8]: 75%
- Mutated/wild type (%) of cyclic AMP produced; 5B3 100 µg/mL + TSH 3 ng/mL [8]: 79%
- Cyclic AMP produced; 5B3 10 µg/mL + TSH 3 ng/mL [9]: 67.7 pmol/mL
- Cyclic AMP produced; 5B3 100 µg/mL + TSH 3 ng/mL [9]: 72.8 pmol/mL
- Inhibition of binding (%) [10]: -3.5%
- % inhibition of TSH-biotin binding [11]: 8%

Molecule: 9D33 IgG (antibody)
- Inhibition of binding (%) [12]: 69.5%
- Inhibition of binding (%) [13]: 6.2%
- Inhibition of binding (%) [14]: 48%
- Inhibition of binding (%) [15]: 63.2%
- Inhibition of binding (%) [16]: 54.8%
- Inhibition of binding (%) [17]: 68.7%

More lines, now with the values ahead:

- units/L [1]: 8.6 units/L
- units/mg [1]: 287 units/mg
- Inhibition of binding (%) [2]: -1.5%
Molecule: M22 IgG (antibody)

- Inhibition of binding (%) [18]: 4.5%
- % inhibition of TSH-biotin binding [19]: 42.9%
- % inhibition of TSH-biotin binding [20]: 35.7%
- Inhibition of binding (%) [21]: 4.1%
- Inhibition of binding (%) [22]: -2.6%
- Inhibition of binding (%) [23]: 33.4%
- Inhibition of binding (%) [24]: 19.7%
- Inhibition of binding (%) [25]: 93.3%
- Inhibition of binding (%) [26]: 7.1%
- Inhibition of binding (%) [27]: 11.7%
B1: 5C9 IgG (antibody, from another filing, V domains shown)
VH: EVQLVESGGGLIQPGGSLRLSCAASGFTVSSNYMSWVRQAPGKGLEWVSVTYSGGSTSYADSVKGRFTISRDNSKNTLYLQMNSLRAEDTAVYYCARGGRYCSSISCYARSGCDYWGQGTLVTVSS
VL: AIQMTQSPSSLSASVGDRVTITCRASQSISNYLNWYQQKPGKAPKLLIYAASSLQSGVPSRFSGSGSGTDFTLTISSLQPEDFATYYCQQSYSSPSTTFGQGTKLEIK
